Reference: article PMC7617692, “Structural evolution of fibril polymorphs during amyloid assembly” (Cell, 2023)
Bridge positions count the residues as written; N and C are the ends. Ends that are not written are not given here.

Target: the molecule itself
Test: cryo-EM structure; fibrils grown quiescently in glass vials, 30 uM peptide, 20 mM ammonium acetate pH 6.8, room temperature; sampled at 3 weeks (lag phase), undiluted; helical reconstruction; repeated with a second reaction

B1: human islet amyloid polypeptide S20G variant (IAPP-S20G) (peptide)
chain: KCNTATCATQRLANFLVHSGNNFGAILSSTNVGSNTY-NH2
modifications: disulfide 2-7; N-terminus assumed
SMILES: CC[C@H](C)[C@H](NC(=O)[C@H](C)NC(=O)CNC(=O)[C@H](Cc1ccccc1)NC(=O)[C@H](CC(N)=O)NC(=O)[C@H](CC(N)=O)NC(=O)CNC(=O)[C@H](CO)NC(=O)[C@H](Cc1c[nH]cn1)NC(=O)[C@@H](NC(=O)[C@H](CC(C)C)NC(=O)[C@H](Cc1ccccc1)NC(=O)[C@H](CC(N)=O)NC(=O)[C@H](C)NC(=O)[C@H](CC(C)C)NC(=O)[C@H](CCCNC(=N)N)NC(=O)[C@H](CCC(N)=O)NC(=O)[C@@H](NC(=O)[C@H](C)NC(=O)[C@@H]1CSSC[C@H](NC(=O)[C@@H](N)CCCCN)C(=O)N[C@@H](CC(N)=O)C(=O)N[C@@H]([C@@H](C)O)C(=O)N[C@@H](C)C(=O)N[C@@H]([C@@H](C)O)C(=O)N1)[C@@H](C)O)C(C)C)C(=O)N[C@@H](CC(C)C)C(=O)N[C@@H](CO)C(=O)N[C@@H](CO)C(=O)N[C@H](C(=O)N[C@@H](CC(N)=O)C(=O)N[C@H](C(=O)NCC(=O)N[C@@H](CO)C(=O)N[C@@H](CC(N)=O)C(=O)N[C@H](C(=O)N[C@@H](Cc1ccc(O)cc1)C(N)=O)[C@@H](C)O)C(C)C)[C@@H](C)O
notes: islet amyloid polypeptide (IAPP, amylin), human, 37-residue hormone, familial early-onset T2D variant S20G; Assembles into amyloid fibrils of two, three or four protofilaments; the number of chains in a fibril is open-ended; Purity >95% by analytical HPLC, mass 3873.3 Da; also called hIAPP-S20G; S20G-IAPP; source: synthetic peptide (Fmoc solid phase, oxidised, reverse-phase HPLC purified)
B1: binds.
